Two molecules from publication PMC3386216 (Molecular Biology of the Cell, 2012) can be followed below.

Assay [1] addresses Sac1 (amino acids 2–521) (untagged recombinant, SPR) (S. cerevisiae) (UniProt P32368). Description: SPR. For orientation: Surface plasmon resonance follows binding to a sensor surface in real time, without labels.
Assay [2] has as its target T1, GST-Sac1 (amino acids 2–521) (S. cerevisiae, UniProt P32368 2-521).
T1 sequence: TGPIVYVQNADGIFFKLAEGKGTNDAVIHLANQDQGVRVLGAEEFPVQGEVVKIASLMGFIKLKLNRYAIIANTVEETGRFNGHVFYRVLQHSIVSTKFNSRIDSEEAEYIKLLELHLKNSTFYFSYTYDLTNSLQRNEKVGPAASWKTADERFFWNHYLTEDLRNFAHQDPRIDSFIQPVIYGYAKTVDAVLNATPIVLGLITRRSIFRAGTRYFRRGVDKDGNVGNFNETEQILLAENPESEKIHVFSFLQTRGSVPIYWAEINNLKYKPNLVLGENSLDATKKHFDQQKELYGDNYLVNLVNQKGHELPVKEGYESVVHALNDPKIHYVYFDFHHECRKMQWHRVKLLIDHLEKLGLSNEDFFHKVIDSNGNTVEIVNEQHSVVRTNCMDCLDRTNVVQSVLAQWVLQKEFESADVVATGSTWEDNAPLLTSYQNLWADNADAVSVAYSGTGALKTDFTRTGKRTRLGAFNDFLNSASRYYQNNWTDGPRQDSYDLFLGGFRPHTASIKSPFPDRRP
Briefly: pull-down.

B1: His- and T7-tagged Vps74 (natural protein)
chain: MSTLQRRRVNRADSGDTSSIHSSANNTKGDKIANIAVDGDDDNGTNKKIAYDPEESKLRDNINIPTLTLMEEVLLMGLRDREGYLSFWNDSISYALRGCIIIELALRGKIRILDDSARKRFDLSERLIEVIDSSKTGEVLLDETLQLMKNDEPLSISNWIDLLSGETWNLLKINYQLKQVRERLAKGLVDKGVLRTEMKNFFLFDMATHPIADASCKEAIKRRVLSVLVSRNMELSYNEYFPETTSFKIIRTLALICGSYGANVLENVLTTLEYEKRDKAISRAEEIMAQFSQYPFDLEKETELGVSVNLNKEVKEEIENNPGHDLQLEVIAGVFEVFSRMDMLL
One may read the Kd as the concentration at which binding is half-saturated. Consider B1, for which the Kd in assay [1] came to 3.8 µM. In addition, the binding result in assay [2] is on record as “binds”.

B2: Vps74ΔN59 (domain or fragment)
chain: DNINIPTLTLMEEVLLMGLRDREGYLSFWNDSISYALRGCIIIELALRGKIRILDDSARKRFDLSERLIEVIDSSKTGEVLLDETLQLMKNDEPLSISNWIDLLSGETWNLLKINYQLKQVRERLAKGLVDKGVLRTEMKNFFLFDMATHPIADASCKEAIKRRVLSVLVSRNMELSYNEYFPETTSFKIIRTLALICGSYGANVLENVLTTLEYEKRDKAISRAEEIMAQFSQYPFDLEKETELGVSVNLNKEVKEEIENNPGHDLQLEVIAGVFEVFSRMDMLL
In the case of B2, the equilibrium dissociation constant (Kd) in assay [1] worked out at 4.2 µM.
